Measured values published in patent US20140072613A1 (published 2014).

Experiments:
Test in all cases: cell-based or functional assay
[1] = biological target: ROCK-II(h) (human, UniProt O75116 11-552, limits assumed)
[2] = biological target: CDK2/cyclinE(h) (human, UniProt P24941 1-298; P24864 1-410)
[3] = biological target: ROCK-I(h) (human, UniProt Q13464 17-535, limits assumed)
[4] = biological target: T1, Mer(h) (human, UniProt Q12866 578-872, limits assumed)
T1 sequence (looked up): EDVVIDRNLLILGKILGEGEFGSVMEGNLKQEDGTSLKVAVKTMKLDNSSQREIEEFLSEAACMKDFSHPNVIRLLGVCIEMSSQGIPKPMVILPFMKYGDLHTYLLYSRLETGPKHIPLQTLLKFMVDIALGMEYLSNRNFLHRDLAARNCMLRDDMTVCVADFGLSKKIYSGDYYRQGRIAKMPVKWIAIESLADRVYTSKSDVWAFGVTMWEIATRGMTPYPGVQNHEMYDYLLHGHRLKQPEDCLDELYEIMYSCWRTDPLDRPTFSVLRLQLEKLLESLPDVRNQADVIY

[5] = biological target: TrkB(h) (human, UniProt Q16620 455-822, limits assumed)
Sequence of TrkB(h) (Q16620 455-822 limits assumed): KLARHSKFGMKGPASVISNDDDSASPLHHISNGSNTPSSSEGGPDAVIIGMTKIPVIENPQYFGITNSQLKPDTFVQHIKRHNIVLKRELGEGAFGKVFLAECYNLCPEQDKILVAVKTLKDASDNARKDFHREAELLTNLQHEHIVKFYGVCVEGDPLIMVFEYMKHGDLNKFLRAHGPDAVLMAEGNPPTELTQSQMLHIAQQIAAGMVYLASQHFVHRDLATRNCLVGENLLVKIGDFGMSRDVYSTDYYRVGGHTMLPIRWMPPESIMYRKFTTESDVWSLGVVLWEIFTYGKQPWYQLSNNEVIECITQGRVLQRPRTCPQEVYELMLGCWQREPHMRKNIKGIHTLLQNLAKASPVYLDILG

[6] = biological target: MSK1(h) (human, UniProt O75582 1-802)
Sequence of MSK1(h) (O75582 whole entry): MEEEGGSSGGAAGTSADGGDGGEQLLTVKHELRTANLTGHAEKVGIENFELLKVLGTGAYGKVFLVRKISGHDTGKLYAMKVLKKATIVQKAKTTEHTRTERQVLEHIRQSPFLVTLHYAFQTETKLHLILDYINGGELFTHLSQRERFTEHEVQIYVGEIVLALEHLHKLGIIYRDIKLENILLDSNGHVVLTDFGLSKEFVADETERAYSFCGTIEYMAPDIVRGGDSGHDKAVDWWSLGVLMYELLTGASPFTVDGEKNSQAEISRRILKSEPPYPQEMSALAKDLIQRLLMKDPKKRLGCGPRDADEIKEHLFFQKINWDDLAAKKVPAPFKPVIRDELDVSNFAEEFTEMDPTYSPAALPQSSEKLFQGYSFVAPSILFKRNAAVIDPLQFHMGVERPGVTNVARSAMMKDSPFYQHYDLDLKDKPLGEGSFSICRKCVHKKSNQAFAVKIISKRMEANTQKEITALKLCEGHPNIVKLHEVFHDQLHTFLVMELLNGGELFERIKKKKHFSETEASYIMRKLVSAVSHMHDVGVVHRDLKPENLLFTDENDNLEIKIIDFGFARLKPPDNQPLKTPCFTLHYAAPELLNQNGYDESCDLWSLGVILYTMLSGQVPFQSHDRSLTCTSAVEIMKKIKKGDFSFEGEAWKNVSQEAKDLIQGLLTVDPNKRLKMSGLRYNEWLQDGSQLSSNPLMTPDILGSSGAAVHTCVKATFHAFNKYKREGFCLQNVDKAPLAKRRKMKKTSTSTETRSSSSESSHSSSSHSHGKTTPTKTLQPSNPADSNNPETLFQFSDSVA

[7] = biological target: CK1γ2(h) (human, UniProt P78368 1-415)
Sequence of CK1γ2(h) (P78368 whole entry): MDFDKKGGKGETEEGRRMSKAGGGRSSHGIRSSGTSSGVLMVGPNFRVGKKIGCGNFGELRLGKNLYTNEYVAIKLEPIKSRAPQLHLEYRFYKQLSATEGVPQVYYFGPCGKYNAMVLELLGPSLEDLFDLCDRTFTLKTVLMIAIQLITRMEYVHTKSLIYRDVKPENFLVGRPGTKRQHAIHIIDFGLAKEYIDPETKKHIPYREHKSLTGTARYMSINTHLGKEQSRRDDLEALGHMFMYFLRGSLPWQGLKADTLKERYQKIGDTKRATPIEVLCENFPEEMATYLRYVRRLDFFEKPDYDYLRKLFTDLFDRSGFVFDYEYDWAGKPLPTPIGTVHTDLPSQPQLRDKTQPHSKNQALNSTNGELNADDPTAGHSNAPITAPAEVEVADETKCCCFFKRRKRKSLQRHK

[8] = biological target: MINK(h) (human, UniProt Q8N4C8 1-320, limits assumed)
[9] = biological target: KDR(h) (human, UniProt P35968 790-1356, limits assumed)
Sequence of KDR(h) (P35968 790-1356 limits assumed): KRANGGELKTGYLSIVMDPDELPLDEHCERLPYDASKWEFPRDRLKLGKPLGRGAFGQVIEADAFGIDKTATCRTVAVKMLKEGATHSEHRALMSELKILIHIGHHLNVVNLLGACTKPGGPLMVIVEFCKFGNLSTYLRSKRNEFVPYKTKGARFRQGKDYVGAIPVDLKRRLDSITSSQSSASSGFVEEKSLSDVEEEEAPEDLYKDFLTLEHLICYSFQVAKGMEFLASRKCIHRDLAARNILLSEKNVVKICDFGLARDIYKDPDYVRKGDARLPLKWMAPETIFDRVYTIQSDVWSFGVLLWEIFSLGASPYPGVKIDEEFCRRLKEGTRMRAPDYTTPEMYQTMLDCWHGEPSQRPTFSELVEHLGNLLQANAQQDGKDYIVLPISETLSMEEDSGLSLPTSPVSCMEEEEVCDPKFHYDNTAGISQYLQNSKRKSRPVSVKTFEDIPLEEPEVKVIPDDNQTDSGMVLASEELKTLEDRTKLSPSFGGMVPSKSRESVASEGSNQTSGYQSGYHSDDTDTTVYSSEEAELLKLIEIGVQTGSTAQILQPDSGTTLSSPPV

[10] = biological target: AMPKα1(h) (human, UniProt Q13131 1-559)
Sequence of AMPKα1(h) (Q13131 whole entry): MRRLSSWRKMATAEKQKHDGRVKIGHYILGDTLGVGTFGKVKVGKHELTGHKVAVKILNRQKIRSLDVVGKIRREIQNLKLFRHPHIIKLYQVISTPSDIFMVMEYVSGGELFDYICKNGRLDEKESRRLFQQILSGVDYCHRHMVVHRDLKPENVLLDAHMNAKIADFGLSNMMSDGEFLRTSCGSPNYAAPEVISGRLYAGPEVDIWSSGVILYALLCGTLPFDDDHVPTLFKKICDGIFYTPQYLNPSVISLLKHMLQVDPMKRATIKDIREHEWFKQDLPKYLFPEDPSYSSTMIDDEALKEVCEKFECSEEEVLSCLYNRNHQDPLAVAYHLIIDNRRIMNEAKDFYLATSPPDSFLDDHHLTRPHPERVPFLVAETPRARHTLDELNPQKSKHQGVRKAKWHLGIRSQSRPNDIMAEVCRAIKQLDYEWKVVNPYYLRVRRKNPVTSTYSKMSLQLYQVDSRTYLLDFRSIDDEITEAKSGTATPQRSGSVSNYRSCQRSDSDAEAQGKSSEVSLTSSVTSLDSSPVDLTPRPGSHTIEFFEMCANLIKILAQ

[11] = biological target: RIPK2(h) (human, UniProt O43353 1-299, limits assumed)
Sequence of RIPK2(h) (O43353 1-299 limits assumed): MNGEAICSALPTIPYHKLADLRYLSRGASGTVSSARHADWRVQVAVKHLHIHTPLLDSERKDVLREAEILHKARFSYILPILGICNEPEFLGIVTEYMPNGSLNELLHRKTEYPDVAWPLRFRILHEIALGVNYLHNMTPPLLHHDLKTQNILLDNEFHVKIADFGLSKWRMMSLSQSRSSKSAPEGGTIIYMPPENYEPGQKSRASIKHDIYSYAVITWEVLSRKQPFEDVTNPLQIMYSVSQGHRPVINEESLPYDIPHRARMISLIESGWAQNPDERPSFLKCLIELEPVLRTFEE

[12] = biological target: EphA7(h) (human, UniProt Q15375 577-998, limits assumed)
Sequence of EphA7(h) (Q15375 577-998 limits assumed): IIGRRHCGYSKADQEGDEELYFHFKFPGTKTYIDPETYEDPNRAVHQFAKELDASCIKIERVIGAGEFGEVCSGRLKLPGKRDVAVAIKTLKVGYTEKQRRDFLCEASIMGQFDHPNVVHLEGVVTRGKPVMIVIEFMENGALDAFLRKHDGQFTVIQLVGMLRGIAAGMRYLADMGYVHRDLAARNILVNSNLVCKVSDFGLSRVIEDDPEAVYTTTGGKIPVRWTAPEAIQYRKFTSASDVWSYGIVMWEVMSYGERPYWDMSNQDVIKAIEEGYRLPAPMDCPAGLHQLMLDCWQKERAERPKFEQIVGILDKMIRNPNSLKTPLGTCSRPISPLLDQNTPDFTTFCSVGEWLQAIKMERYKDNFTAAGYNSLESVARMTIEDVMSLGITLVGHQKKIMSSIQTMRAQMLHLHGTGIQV

[13] = biological target: T2, TAK1(h) (human, UniProt O43318 1-303, limits assumed)
T2 sequence (looked up): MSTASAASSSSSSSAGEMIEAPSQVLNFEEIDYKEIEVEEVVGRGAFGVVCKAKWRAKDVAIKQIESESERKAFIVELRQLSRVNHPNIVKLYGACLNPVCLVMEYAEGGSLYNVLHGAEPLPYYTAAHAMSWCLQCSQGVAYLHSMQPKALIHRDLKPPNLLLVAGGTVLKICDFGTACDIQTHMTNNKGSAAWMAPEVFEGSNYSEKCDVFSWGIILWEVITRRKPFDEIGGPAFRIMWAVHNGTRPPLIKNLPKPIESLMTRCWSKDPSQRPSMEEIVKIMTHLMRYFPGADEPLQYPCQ

[14] = biological target: Syk(h) (human, UniProt P43405 1-635)
[15] = biological target: JNK3(h) (human, UniProt P53779 1-464, limits assumed)
Sequence of JNK3(h) (P53779 whole entry): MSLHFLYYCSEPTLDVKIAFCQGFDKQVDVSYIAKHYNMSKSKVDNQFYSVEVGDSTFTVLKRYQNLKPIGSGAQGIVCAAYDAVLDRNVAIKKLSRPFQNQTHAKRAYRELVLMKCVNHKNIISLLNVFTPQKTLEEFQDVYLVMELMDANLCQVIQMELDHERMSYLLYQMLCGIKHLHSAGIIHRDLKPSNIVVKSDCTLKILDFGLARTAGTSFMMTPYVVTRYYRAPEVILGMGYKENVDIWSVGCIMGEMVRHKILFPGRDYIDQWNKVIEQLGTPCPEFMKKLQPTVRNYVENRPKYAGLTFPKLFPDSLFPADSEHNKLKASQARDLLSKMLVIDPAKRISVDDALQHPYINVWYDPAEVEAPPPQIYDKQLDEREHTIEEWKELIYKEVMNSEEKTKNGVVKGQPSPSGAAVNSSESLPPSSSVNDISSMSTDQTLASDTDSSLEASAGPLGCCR

[16] = biological target: T3, Ret(V804L)(h) (human, UniProt P07949 658-1114, limits assumed)
T3 sequence (looked up): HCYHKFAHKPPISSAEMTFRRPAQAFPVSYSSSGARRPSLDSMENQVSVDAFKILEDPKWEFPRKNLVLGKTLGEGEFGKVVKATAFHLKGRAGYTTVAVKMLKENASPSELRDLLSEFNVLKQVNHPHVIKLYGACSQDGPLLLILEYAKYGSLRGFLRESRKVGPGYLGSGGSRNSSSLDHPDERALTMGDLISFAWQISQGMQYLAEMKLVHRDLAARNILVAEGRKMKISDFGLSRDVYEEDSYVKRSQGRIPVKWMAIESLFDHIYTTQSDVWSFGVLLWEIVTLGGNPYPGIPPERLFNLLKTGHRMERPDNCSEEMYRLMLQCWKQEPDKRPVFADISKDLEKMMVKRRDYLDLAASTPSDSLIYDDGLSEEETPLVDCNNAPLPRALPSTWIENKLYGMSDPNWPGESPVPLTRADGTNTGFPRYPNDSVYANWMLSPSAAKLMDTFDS

[17] = biological target: T4, MRCKβ(h) (human, UniProt Q9Y5S2 1-473, limits assumed)
T4 sequence (looked up): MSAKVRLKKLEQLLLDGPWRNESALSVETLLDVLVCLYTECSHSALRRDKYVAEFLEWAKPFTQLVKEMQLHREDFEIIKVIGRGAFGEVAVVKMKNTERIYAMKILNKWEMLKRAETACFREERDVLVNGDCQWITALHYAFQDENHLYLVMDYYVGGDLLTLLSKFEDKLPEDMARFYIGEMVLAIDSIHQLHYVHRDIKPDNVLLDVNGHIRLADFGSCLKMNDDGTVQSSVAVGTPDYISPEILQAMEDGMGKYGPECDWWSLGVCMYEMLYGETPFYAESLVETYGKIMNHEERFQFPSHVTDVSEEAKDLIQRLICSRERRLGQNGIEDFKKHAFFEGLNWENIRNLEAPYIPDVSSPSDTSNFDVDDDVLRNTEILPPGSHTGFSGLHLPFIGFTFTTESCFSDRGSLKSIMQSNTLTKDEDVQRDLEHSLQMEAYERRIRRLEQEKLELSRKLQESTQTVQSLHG

Sequence of ROCK-II(h) (O75116 11-552 limits assumed): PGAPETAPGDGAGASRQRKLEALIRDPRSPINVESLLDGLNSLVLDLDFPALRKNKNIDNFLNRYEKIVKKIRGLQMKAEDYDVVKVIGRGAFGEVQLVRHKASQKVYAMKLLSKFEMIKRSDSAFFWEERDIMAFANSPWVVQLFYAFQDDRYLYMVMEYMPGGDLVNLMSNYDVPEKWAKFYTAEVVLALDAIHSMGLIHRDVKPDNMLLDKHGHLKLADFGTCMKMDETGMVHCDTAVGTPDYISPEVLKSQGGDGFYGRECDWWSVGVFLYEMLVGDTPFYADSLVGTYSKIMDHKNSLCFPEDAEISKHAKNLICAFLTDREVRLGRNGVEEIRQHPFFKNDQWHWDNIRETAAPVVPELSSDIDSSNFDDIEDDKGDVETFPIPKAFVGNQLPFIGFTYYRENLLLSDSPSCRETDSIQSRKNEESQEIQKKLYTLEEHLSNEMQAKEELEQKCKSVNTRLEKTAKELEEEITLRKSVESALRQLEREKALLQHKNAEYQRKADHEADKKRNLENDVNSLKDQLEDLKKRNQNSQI
Sequence of ROCK-I(h) (Q13464 17-535 limits assumed): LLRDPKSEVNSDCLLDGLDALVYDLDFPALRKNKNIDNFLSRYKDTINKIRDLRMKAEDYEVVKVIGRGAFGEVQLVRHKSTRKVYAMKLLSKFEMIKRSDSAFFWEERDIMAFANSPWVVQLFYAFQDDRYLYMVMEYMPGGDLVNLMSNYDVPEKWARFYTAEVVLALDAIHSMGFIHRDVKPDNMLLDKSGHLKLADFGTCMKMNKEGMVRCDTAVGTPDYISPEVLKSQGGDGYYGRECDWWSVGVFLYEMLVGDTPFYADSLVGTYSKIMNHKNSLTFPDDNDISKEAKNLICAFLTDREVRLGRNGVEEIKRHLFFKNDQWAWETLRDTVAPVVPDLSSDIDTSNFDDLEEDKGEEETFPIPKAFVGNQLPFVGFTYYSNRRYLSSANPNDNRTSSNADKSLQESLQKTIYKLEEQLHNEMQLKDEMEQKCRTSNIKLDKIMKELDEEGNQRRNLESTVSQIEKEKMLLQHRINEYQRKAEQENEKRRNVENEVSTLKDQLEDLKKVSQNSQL

Binder | % activity, 100 µM [1] [%] | % activity, 100 µM [2] [%] | % activity, 100 µM [3] [%] | % activity, 100 µM [4] [%] | % activity, 100 µM [5] [%] | % activity, 100 µM [6] [%] | % activity, 100 µM [7] [%] | % activity, 100 µM [8] [%] | % activity, 100 µM [9] [%] | % activity, 100 µM [10] [%] | % activity, 100 µM [11] [%] | % activity, 100 µM [12] [%] | % activity, 100 µM [13] [%] | % activity, 100 µM [14] [%] | % activity, 100 µM [15] [%] | % activity, 100 µM [16] [%] | % activity, 100 µM [17] [%]
KAFAKLAARLYRKALARQLGVAA [MMI-0400] | 77 | 83 | 73 | 50 | 8 | 28 | 114 | 52 | 94 | 87 | 98 | 222 | 177 | 9 | 70 | 73 | 71
FAKLAARLYRKALARQLGVAA [MMI-0300] | 74 | 94 | 79 | 52 | 5 | 32 | 123 | 48 | 101 | 71 | 97 | 159 | 122 | 24 | 89 | 79 | 83
